B1: SLP_VHH50 displayed on phage (VHH)
VHH: QVKLEESGGGLVQPGGSLRLSCAASGFTLDYYTIGWFRQAPGKEREGVACISSDDRTYYVDSVKGRFAISRDNVKNTVYLQMNNLKPEDTAVYYCASKESVFLIATMKGCAPGHDDYWGQGTQVTVSS
notes: as the VHH of m9
B2: SLP_VHH12 (VHH)
VHH: QVQLVESGGGLVQAGDSLRLSCAASGGTFSSYAVGWFRQAPGKERQFVAAISWSGRSTEYADSVKGRFTISRDNAKNTVYLQMNSLQPDDTGVYYCAADWSHPENKAELLRLRLWVLSAESSDYWGQGTQVTVSS
notes: From an immune llama phage display library panned on QCD-32g58 SLP; source: monomeric SEC fractions for SPR; not shown: His6, C-terminal, kept
B3: SLP_VHH12 displayed on phage (VHH)
VHH: B2 VHH
notes: as the VHH of m3
B4: SLP_VHH22 displayed on phage (VHH)
VHH: QVQLVESGGGLVQPGGSLRLSCAASGFTLDSYAIGWFRQAPGKEHEGISCISSNGGSTYYTDSVKGRFTISRDNAKNTVYLQMNSLESEDSAVYYCATVRRCSSLDMALGALATRTKGYDYWGQGTQVTVSS
notes: as the VHH of m4
B5: SLP_VHH23 (VHH)
VHH: QVQLVESGGGLVQAGGSLRLSCAASGRTFSSYAVGWFRQAPGKEREFVAAISWSGGYTDYADSVKGRFTISRDNAKNTVYLQMNNLKPEDTAVYYCAADWSHPENKAELLRLRLWVLSAESSDDWGQGTQVTVSS
notes: as for B2
B6: SLP_VHH23 displayed on phage (VHH)
VHH: B5 VHH
notes: as the VHH of m5
B7: SLP_VHH49 (VHH)
VHH: QVKLEESGGGLVQAGGSLRLSCAASEGAFSDALSRHAAGWFRQAPGKEREFVAAISWNGANTDYKNSVNNRFTISRDTSKNTVYLQMNSLKPEDTAVYYCAAKNEPSWISRIYYRGLEYDYWGQGTQVTVSS
notes: as for B2
B8: SLP_VHH49 displayed on phage (VHH)
VHH: B7 VHH
notes: as the VHH of m8
B9: SLP_VHH5 (VHH)
VHH: QVKLEESGGGLVQAGGSLRLSCAASRLTFSTYHMGWFRQAPGKEREFVAALSWSGGTTYYADSVKGRFGISRDNAKNTVYLQMNSLKPEDTAVYYCASGGVLATMNSDEYDYWGQGTQVTVSS
notes: as for B2
B10: SLP_VHH46 (VHH)
VHH: QVKLEESGGGLVQAGGSLRLSCADSERTFRIYTMAWFRQAPGKERDFVAAISWSGGSTYYADSVKGRFTISRDNAKNTVYLPMNSLKPDDTAVYYCASGGVLSTGSQSDSEYDFWGQGTQVTVSS
notes: as for B2
B11: SLP_VHH46 displayed on phage (VHH)
VHH: B10 VHH
notes: as the VHH of m7
B12: SLP_VHH2 (VHH)
VHH: QVKLEESGGGLVQPGGSLRLSCAASGGTFTNYAMAWFRQTPGNDREFVGIISQKGGRTYYADSVKGRFSVSRDNAKNTAYLQMNSLKPEDTAVYYCAAGDSSYYYTRSRYDIWGQGTQVTVSS
notes: as for B2

Key:
[1] = target: T1, 630 SLP (surface layer protein of C. difficile strain 630, HMW and LMW subunits) (Clostridioides difficile 630 (ribotype …, UniProt Q183M8, strain)); assay: ELISA; monoclonal phage ELISA: phage-displayed VHHs on immobilized SLPs; details: one partner purified
T1 construct: low-molecular-weight (LMW) subunit of the surface layer protein, cut from the precursor SlpA by Cwp84, C. difficile strain 630 (ribotype 012); predicted mass 34.2 kDa; high-molecular-weight (HMW) subunit of the surface layer protein, cut from the precursor SlpA by Cwp84, C. difficile strain 630 (ribotype 012); predicted mass 39.5 kDa; Both subunits come from one precursor, SlpA; source: purified …

[2] = target: T2, SLP on cells of C. difficile strain BI-7 (ribotype 027) (Clostridioides difficile BI-7 (ribotype …, UniProt A0A9R0BMB3, strain)); assay: ELISA; whole cell ELISA: formalin-fixed C. difficile cells coated on MaxiSorp plates, His6-tagged VHH at 10 μg/ml in PBS-T, 37 °C, 1 h, detected with anti-His6-HRP; details: one partner purified
T2 construct: LMW subunit of the surface layer protein (from the precursor SlpA), C. difficile strain BI-7, ribotype 027; HMW subunit of the surface layer protein (from the precursor SlpA), C. difficile strain BI-7, ribotype 027; Whole cells were the antigen; source: endogenous, on formalin-fixed C. difficile BI-7 cells

[3] = target: T3, SLP on cells of C. difficile strain 196 (ribotype 027) (Clostridioides difficile 196 (ribotype …, UniProt A0A9R0BMB3, strain)); assay: as above; details: one partner purified
T3 construct: LMW subunit of the surface layer protein (from the precursor SlpA), C. difficile strain 196, ribotype 027; HMW subunit of the surface layer protein (from the precursor SlpA), C. difficile strain 196, ribotype 027; Whole cells were the antigen; source: endogenous, on formalin-fixed C. difficile 196 cells

[4] = target: T4, SLP on cells of C. difficile strain BI-1 (ribotype 027) (Clostridioides difficile BI-1 (ribotype …, UniProt A0A9R0BMB3, strain)); assay: as above; details: one partner purified
T4 construct: LMW subunit of the surface layer protein (from the precursor SlpA), C. difficile strain BI-1, ribotype 027; HMW subunit of the surface layer protein (from the precursor SlpA), C. difficile strain BI-1, ribotype 027; Whole cells were the antigen; source: endogenous, on formalin-fixed C. difficile BI-1 cells

[5] = target: T5, SLP on cells of C. difficile strain R20291 (ribotype 027) (Clostridioides difficile R20291 …, UniProt A0A9R0BMB3, strain); assay: as above; details: one partner purified
T5 construct: LMW subunit of the surface layer protein (from the precursor SlpA), C. difficile strain R20291, ribotype 027; HMW subunit of the surface layer protein (from the precursor SlpA), C. difficile strain R20291, ribotype 027; Whole cells were the antigen; source: endogenous, on formalin-fixed C. difficile R20291 cells

[6] = target: T6, QCD-32g58 SLP (surface layer protein of C. difficile strain QCD-32g58, HMW and LMW subunits) (Clostridioides difficile QCD-32g58 …, UniProt A0A9R0BMB3, strain); assay: SPR; Biacore 3000; fresh QCD-32g58 SLP surface on a CM5 chip, a single injection of each VHH (50 mM NaOH regeneration destroyed the surface); 25 °C, 10 mM HEPES pH 7.4, 150 mM NaCl, 3 mM EDTA, 0.005 % P20; KD from kinetic rate constants; details: both partners purified
T6 construct: low-molecular-weight (LMW) subunit of the surface layer protein, cut from the precursor SlpA by Cwp84, C. difficile strain QCD-32g58 (ribotype 027); predicted mass 33.9 kDa; high-molecular-weight (HMW) subunit of the surface layer protein, cut from the precursor SlpA by Cwp84, C. difficile strain QCD-32g58 (ribotype 027); predicted mass 44.2 kDa; Both subunits come from one precursor, SlpA; also …

[7] = target: T7, QCD-32g58 LMW SLP (low-molecular-weight subunit of the QCD-32g58 surface layer protein) (Clostridioides difficile QCD-32g58 …, UniProt A0A9R0BMB3, strain); assay: SPR; Biacore 3000; SEC-purified QCD-32g58 LMW SLP subunit amine-coupled to a CM5 chip; single-concentration screen, 200 nM VHH; 25 °C, 10 mM HEPES pH 7.4, 150 mM NaCl, 3 mM EDTA, 0.005 % P20; details: both partners purified
T7 construct: low-molecular-weight (LMW) subunit of the surface layer protein, cut from the precursor SlpA by Cwp84, C. difficile strain QCD-32g58 (ribotype 027); predicted mass 33.9 kDa; also called QCD-32g58 SLP LMW subunit; LMW subunit; source: purified from C. difficile QCD-32g58 (low-pH glycine extraction, minor SEC peak at about 15 ml); in the Western blot the LMW band of the extracted SLPs

[8] = target: T1, 630 SLP (surface layer protein of C. …); assay: SPR; Biacore 3000; 630 SLP immobilised on a CM5 chip, VHHs injected at various concentrations; data not shown; details: both partners purified
[9] = target: T6, QCD-32g58 SLP (surface layer protein of …); assay: SPR; Biacore 3000; SEC-purified QCD-32g58 SLP amine-coupled to a CM5 chip, VHH monomer fractions injected at various concentrations; 25 °C, 10 mM HEPES pH 7.4, 150 mM NaCl, 3 mM EDTA, 0.005 % P20; KD by steady-state analysis; details: both partners purified
[10] = target: T6, QCD-32g58 SLP (surface layer protein of …); assay: SPR; Biacore 3000; SEC-purified QCD-32g58 SLP amine-coupled to a CM5 chip, VHH monomer fractions injected at various concentrations; 25 °C, 10 mM HEPES pH 7.4, 150 mM NaCl, 3 mM EDTA, 0.005 % P20, 20 μl/min; KD from kinetic rate constants; details: both partners purified

Binder | binding result [1] | binding result [2] | binding result [3] | binding result [4] | binding result [5] | Kd [7] | koff [7] | kon [7] | binding result [8] | other results
B1 | no binding | – | – | – | – | – | – | – | – | –
B2 | – | binds | binds | binds | binds | 1 nM | 0.00012 s⁻¹ | 140000 M⁻¹ s⁻¹ | no binding | Kd [6]: 3 nM; koff [6]: 0.00034 s⁻¹; kon [6]: 120000 M⁻¹ s⁻¹
B3 | no binding | – | – | – | – | – | – | – | – | –
B4 | no binding | – | – | – | – | – | – | – | – | –
B5 | – | binds | binds | binds | binds | 3 nM | 0.00032 s⁻¹ | 110000 M⁻¹ s⁻¹ | no binding | Kd [6]: 4 nM; koff [6]: 0.00037 s⁻¹; kon [6]: 94000 M⁻¹ s⁻¹
B6 | no binding | – | – | – | – | – | – | – | – | –
B7 | – | binds | binds | binds | binds | 20 nM | 0.012 s⁻¹ | 590000 M⁻¹ s⁻¹ | no binding | Kd [9]: 48 nM
B8 | no binding | – | – | – | – | – | – | – | – | –
B9 | – | binds | binds | binds | binds | 3 nM | 0.00041 s⁻¹ | 140000 M⁻¹ s⁻¹ | – | Kd [10]: 6 nM; koff [10]: 0.00046 s⁻¹; kon [10]: 82000 M⁻¹ s⁻¹
B10 | – | binds | binds | binds | binds | 2 nM | 0.00032 s⁻¹ | 150000 M⁻¹ s⁻¹ | no binding | Kd [10]: 3 nM; koff [10]: 0.00034 s⁻¹; kon [10]: 110000 M⁻¹ s⁻¹
B11 | no binding | – | – | – | – | – | – | – | – | –
B12 | – | binds | binds | binds | binds | 90 nM | 0.013 s⁻¹ | 150000 M⁻¹ s⁻¹ | – | Kd [8]: 1000 nM; Kd [9]: 230 nM
